± gives the uncertainty stated by the source.
Test: protein stability index of a GFP-peptide fusion (yeast GPS) (PSI 1-4); higher = more stable; sorted into four equal gates, so the index is relative within each strain
Procedure, shortened: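 Each library plasmid carries Cherry plus GFP with a tiled 17-residue yeast protein peptide fused downstream, and the pooled library was carried in yeast. Mid-log cultures in leucine-free medium were sorted into four equal gates by GFP/Cherry ratio. Reads from Illumina sequencing of PCR-amplified plasmids from each gate were assigned to strains by barcodes. Per peptide, the protein stability index was computed as the summed products of gate read frequency and gate number.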

Row | Sequence | protein stability index (doa10∆) | protein stability index (pdr5∆) | protein stability index (san1∆) | protein stability index (ubr1∆)
1 | TGHSQGLVTAVAIAETD [FAS1] | 3.25 ± 0.14 | 3.44 ± 0.078 | 3.29 ± 0.098 | 3.25 ± 0.095
2 | PAKSASARGSYLRVSFK [RPL17A] | 3.2 ± 0.046 | 3.27 ± 0.051 | 3.091 ± 0.029 | 3.14 ± 0.041
3 | GEAEAEKEEEEAKEESD [RPP1A] | 2.13 ± 0.22 | 3.51 ± 0.15 | 2.54 ± 0.16 | 3.52 ± 0.14
4 | MKVFVTKHLMPQDLTFN [RPB7] | 2.96 ± 0.062 | 2.87 ± 0.054 | 2.54 ± 0.066 | 2.94 ± 0.051
5 | IMKIGGIKLQMQNSKVE [SMC4] | 2.11 ± 0.13 | 1.82 ± 0.1 | 2.25 ± 0.12 | 2.1 ± 0.12
6 | KYAQDGAGIERELARIK [RPL3] | 3.54 ± 0.2 | 3.46 ± 0.16 |  | 
7 | ETQFKLSRPYKALKTNI [CDC53] | 2.19 ± 0.045 | 2.39 ± 0.051 | 2.23 ± 0.05 | 2.45 ± 0.052
8 | IHIQSKENYPWELYTDF [POP3] | 2.99 ± 0.095 | 3.16 ± 0.12 | 2.69 ± 0.12 | 3.12 ± 0.075
9 | DVKLVLASNFDNFDYFN [MED1] | 3.17 ± 0.065 | 3.19 ± 0.068 | 3.2 ± 0.07 | 3.15 ± 0.056
10 | ALDFRNVSIVANYIKER [SMC4] | 1.51 ± 0.069 | 2.04 ± 0.058 | 1.51 ± 0.11 | 1.82 ± 0.058
11 | PDNSIFGDTKSESKQLG [SWI3] | 3.54 ± 0.14 | 3.23 ± 0.091 | 3.21 ± 0.076 | 3.37 ± 0.052
12 | LVEARSLGHQTSLITAV [MTR3] | 2.69 ± 0.08 | 1.97 ± 0.067 | 2.79 ± 0.082 | 1.25 ± 0.064
13 | QLLDIAEFKKENLADLD [LIN1] | 1.48 ± 0.092 | 1.55 ± 0.097 | 1.24 ± 0.12 | 2.95 ± 0.096
14 | DTYKRFKYLLGVTDLFR [ISW2] | 1.85 ± 0.045 | 1.37 ± 0.052 | 1.21 ± 0.11 | 1.34 ± 0.075
15 | IRSVALNDSNVKSFKPH [RRP42] | 2.63 ± 0.083 | 3.23 ± 0.17 | 2.62 ± 0.23 | 2.98 ± 0.13
16 | MSLQHEKVTIAPLVLLS [RPN8] | 1.19 ± 0.035 | 1.28 ± 0.032 | 1.2 ± 0.068 | 1.21 ± 0.031
17 | EEEKSVDASPNDVTRRT [CSL4] | 3.25 ± 0.08 | 3.33 ± 0.085 | 3.27 ± 0.05 | 3.44 ± 0.065
18 | QVLFQGLIYSFNEENGE [POP1] | 3.1 ± 0.13 | 3.24 ± 0.18 | 2.77 ± 0.26 | 3.02 ± 0.18
19 | CIIAVSCTLLERGHPKD [POP1] | 1.46 ± 0.022 | 1.52 ± 0.029 | 1.81 ± 0.036 | 1.96 ± 0.027
20 | DNISSFHSAVENLVQGN [YCG1] | 3.26 ± 0.08 | 3 ± 0.064 | 3.17 ± 0.067 | 3.31 ± 0.11
21 | TELVDKANIFQVIKNEV [SSN2] |  | 2.54 ± 0.18 | 2.97 ± 0.2 | 3.16 ± 0.17
22 | DYVTNPDTKISSAAILG [RPN1] | 2.42 ± 0.087 | 2.43 ± 0.1 | 2.21 ± 0.17 | 1.91 ± 0.1
23 | FGDTKSESKQLGNTSSV [SWI3] | 3.54 ± 0.12 | 3.16 ± 0.081 | 3.13 ± 0.066 | 3.35 ± 0.05
24 | FDQSTNVKVIMATNRAD [RPT3] | 2.12 ± 0.054 | 2.15 ± 0.053 | 1.52 ± 0.074 | 2.02 ± 0.051
25 | QHLRNEHGMNAPSVPEF [SNF2] | 2.86 ± 0.1 | 3.56 ± 0.13 | 2.96 ± 0.08 | 3.09 ± 0.061
26 | IIYHTTFSWLNAELLDY [YLR018C/POM34] | 2.72 ± 0.072 | 2.19 ± 0.068 | 2.56 ± 0.092 | 2.41 ± 0.052
27 | AGALNLASPEVKVHMDS [DIS3] | 3.06 ± 0.083 | 3.4 ± 0.069 | 2.99 ± 0.07 | 3.04 ± 0.052

Row | Sequence | protein stability index (doa10∆) | protein stability index (pdr5∆) | protein stability index (san1∆) | protein stability index (ubr1∆)
28 | EMDEKSYEKNEDHVEDH [LIN1] | 3.3 ± 0.11 | 3.35 ± 0.089 | 3.49 ± 0.086 | 3.14 ± 0.052
29 | HSQFMKDLKDDSIYTKP [YJL039C/NUP192] | 2.83 ± 0.045 | 3.02 ± 0.05 | 3.02 ± 0.044 | 2.93 ± 0.038
30 | AGKFPTPVSHNDDLYGK [RPL1A] | 2.26 ± 0.041 | 2.62 ± 0.056 | 2.21 ± 0.057 | 2.45 ± 0.043
31 | DNSESHPFIPLLKEKPN [RRP6] | 1.93 ± 0.066 | 1.93 ± 0.059 | 1.99 ± 0.071 | 1.99 ± 0.051
32 | KSMGRKCFDDIEPHIFD [YCG1] | 3.15 ± 0.075 | 3.07 ± 0.084 | 3.29 ± 0.046 | 3.32 ± 0.048
33 | IVLDEVRNKSYPVYTRL [DIS3] | 2.93 ± 0.051 | 2.65 ± 0.056 | 2.99 ± 0.067 | 1.69 ± 0.027
34 | TVYSSEQYIQELDKRED [SMC3] | 2.76 ± 0.18 | 3.26 ± 0.24 |  | 3.47 ± 0.25
35 | NQQQQQQQQQQQQRRQL [GAL11] | 2.79 ± 0.056 | 2.9 ± 0.063 | 2.84 ± 0.043 | 2.91 ± 0.051
36 | ETKDIRKQIQLLKKIIF [SRB4] | 2.34 ± 0.052 | 2.43 ± 0.044 | 2.42 ± 0.045 | 2.39 ± 0.039
37 | GNPYIELNQDRLGGDDL [SNF5] | 3.05 ± 0.092 | 3.24 ± 0.098 | 3.03 ± 0.11 | 3.27 ± 0.049
38 | LTFVSVDEELGPSIYKT [SCL1] | 2.37 ± 0.065 | 1.94 ± 0.05 | 3.02 ± 0.054 | 2.99 ± 0.067
39 | TKGDTSKATGAPSANQG [RTT102] | 3.18 ± 0.065 | 3.35 ± 0.074 | 3.29 ± 0.045 | 3.24 ± 0.059
40 | RGNIKVMFATNRPNTLD [RPT1] | 2.91 ± 0.079 | 3.05 ± 0.088 | 3.02 ± 0.063 | 2.98 ± 0.085
41 | TETLTSKKIVPSPKKVA [SIR4] | 2.77 ± 0.089 | 2.87 ± 0.083 | 2.63 ± 0.066 | 2.55 ± 0.12
42 | MVATVKRTIRIKTQQHI [TAF14] | 1.62 ± 0.09 | 1.95 ± 0.053 | 1.53 ± 0.14 | 1.56 ± 0.09
43 | TKSGATTSEKQEVTNEA [GAL11] | 2.99 ± 0.28 | 3.52 ± 0.19 | 2.9 ± 0.28 | 
44 | AIMNCADNSGARNLYII [RPL23A] | 2.33 ± 0.089 | 3.14 ± 0.17 | 2.52 ± 0.14 | 3.1 ± 0.17
45 | QGIFKNSSNYFGELQFA [AAR2] | 2.36 ± 0.14 | 2.6 ± 0.1 | 2.41 ± 0.12 | 2.11 ± 0.12
46 | PIDNNIIFASTKLGFTF [SNU114] | 2.63 ± 0.05 | 2.52 ± 0.047 | 2.38 ± 0.054 | 2.67 ± 0.035
47 | LLVVIFKKTLRSRISSP [SRB4] | 1.53 ± 0.085 | 1.66 ± 0.094 | 1.77 ± 0.13 | 1.95 ± 0.11
48 | NINATNTSVLMKLKLMI [YCS4] | 2.08 ± 0.093 | 1.5 ± 0.079 | 1.48 ± 0.13 | 2.24 ± 0.077
49 | PNIRELGVKNLGLCCLL [YCG1] | 2.91 ± 0.25 |  | 1.87 ± 0.21 | 1.46 ± 0.061
50 | GISDMCRLFFTELASKD [YCS4] | 2.37 ± 0.085 | 2.4 ± 0.087 | 2.18 ± 0.1 | 2.61 ± 0.078
51 | TLYIGNTANGRPPVKAI [ECM29] | 1.84 ± 0.17 | 2 ± 0.094 | 1.99 ± 0.11 | 1.47 ± 0.11
52 | TNVPKAKKRKTLILIQN [SIR3] | 1.67 ± 0.18 | 1.63 ± 0.12 | 1.33 ± 0.22 | 1.4 ± 0.1
53 | GSAELRNSYPASFYSVN [RPN3] | 3.12 ± 0.21 | 3.15 ± 0.11 | 2.87 ± 0.059 | 3.55 ± 0.092

— the supplement of paper PMC9732359
